According to paper PMC5892457, “Characterisation of novel biomass degradation enzymes from the genome of Cellulomonas fimi” (Enzyme and Microbial Technology, 2018):

Legend:
Test in all cases: purified protein
Type in all cases: biochemical, Cellulomonas fimi
purified protein [1] = substrate: O=[N+]([O-])c1ccccc1O[C@@H]1OC[C@@H](O)[C@H](O)[C@H]1O; settings: pH 6.0, 45 °C, partially purified enzyme, points at 20 mM and above excluded (substrate precipitation)
purified protein [2] = substrate: O=[N+]([O-])c1ccc(O[C@@H]2O[C@@H](CO)[C@H](O)[C@H]2O)cc1; settings: pH 6.5, 45 °C, partially purified enzyme
purified protein [3] = substrate: O=[N+]([O-])c1ccccc1O[C@@H]1O[C@H](CO)[C@@H](O[C@@H]2O[C@H](CO)[C@@H](O)[C@H](O)[C@H]2O)[C@H](O)[C@H]1O; settings: pH 6.0, 60 °C, partially purified enzyme, printed value differs between text and Table 3

B1: BxyF (Cellulomonas fimi ATCC 484) (protein)
chain: MTRRLVPELEVRRHLVEDYADFTQIPEAVVARWKAPFGPPEDWDLTVVDHTVPGPHGPVPVRVYTPVGTPPDGGRACLVWMHGGAFSWGDLDMAEAHEVARGVAGRADVVVVSVDYRLCPVMPELGGTVGDRVDERGEPVRFPVPQDDCAAVLDAVRADPARFGVDAARVAIGGASAGAFLAAAVTLRAVEDGRAPWQTLLVYPMLHPRVPALGTELAEAVEAAPRALQLPAWMVEATNRTVLGREPEPSDDEAFPGLAARLEGFPPTYVENGELDAFRASGERFSTRLRAAGVDVVEVTRSGVPHGHLDWVGFGPARDTLDALAQRLRAPSAADRQALDELRVDGAPASDAPLHHVWNRCVGAGRANEALRADWQAHLREAVDVLGVRSVRFHGLFHDDMFVYRSTYGGGFAPPEVLPEPLITFSYVDMVFDALLDAGARPFVELGFMPRELATQTETLFWWKAHCSPPTDMAEWVRLVSETVRHWIERYGLDEVRQWRFEVWNEPNLVPHFWTGTRTEYFALYEATARALKAIDLQLRVGGPSTSVFVPDARYAGETYDHAAEFATGRAPDPDALDWQPVWVRELVDYCAERDLPLDFLSTHLYPTDYAADGTGSGVTAIHRHVDATEQDLRLLQELIAASPYPDAELHITEWSSSPSSRDRTHDTLFAATYITRAFLKGAALADSISYWTFTDIFEEGGAGLGPFHGGFGFVNEQGIHKPTFHAVAMLNRLGDRVVHQDEHGIITRSSGDGHVSAVFLNYPAEMGTRGVEQHDTYAAARAYREIGTARRVRRTVAGLEPGTVFQVEVLDWEHGNAAEAWHQMGEPLNLTRAQTTELKTVADDLRRWTITVPDSGVLEIDLDLPAWAVASVAPVTPTPSPTTNDAPSPTSSRQG
notes: full ORF as BioBrick, E. coli JM109, untagged; partially purified (DEAE-Sepharose, phenyl-agarose)
Km (purified protein [1]): 1.7 mM

B2: AfsB (Cellulomonas fimi ATCC 484) (protein)
chain: MFPVRLTLDPAFRVGPVRRRTFGSFVEHLGRCVYTGIHDPGHPTADADGFRKDVLELTRELGVSTVRYPGGNFVSGYRWEDGVGPVEQRPTRLDLAWHSLEPNTVGVDEFMRWAALAEVEPMMAVNLGTRGVQEALDLLDYCNGTAPTYWADQRRANGATDPYAIKMWCLGNEMDGPWQIGSKTAHEYGRLAAETGRAMKMVDPTLELVACGSSGVVMPTFGEWERIVLSEAYEQVDYVSAHAYYWEEDGDLGSFLASATDMDHFVESVTATADAVRAHKKVSKRIHISFDEWNVWYQKRAESRPPTGDDWPVAPVLLEDRYNVADAVVVGNLLISLLRHTDRVHAASLAQLVNVIAPIMTEPGGRSWKQTIFHPFAQASRYAAGDVLQVAIDAPTYETARYGDAALVDAVATRDPETGATTLFAVNRSLTEPALLEVDTRALPGLRVLDASTLSNPDHTWAATADDDTSVAPRANTTAEIRDGRLTVQVPPVSWNVVRLGA
notes: as for B1
Km (purified protein [2]): 6.8 mM

B3: XynF (Cellulomonas fimi ATCC 484) (protein)
chain: AGSTLQAAAAESGRYFGTAIAASRLSDGTYTGIANREFNMITAENEMKMDATEPNRGQFSYSNGDRIVNWARQNGKQVRGHALAWHSQQPGWMQNLSGTDLRNAMLNHVTQVATYYRGKIYAWDVVNEAYADGSSGARRDSNLQRTGNDWIEAAFRAARAADPNAKLCYNDYNTDNWSHAKTQGVYNMVKDFKARGVPIDCVGFQAHFNSGNPVPSNYHTTLQNFADLGVDVQITELDIEGSGSSQAQQYQGVVQACLAVSRCTGITVWGVRDTDSWRASGTPLLFDGSGNKKAAYTSVLNALNAGGTTTPTPNPTNPTPTPTPTNPGGGSPSCTATYSEGQKWGDRFNGTVTIRATTNISSWQSTVTVRSPQKIIATWNGSPTWDSSGNVMTMRPSGSGALAAGQSTSFGFTVQHNGNWTWPSVTCAAS
notes: ORF with TAT signal peptide and CBMII as BioBrick, E. coli JM109, untagged; partially purified (DEAE-, CM-Sepharose)
Km (purified protein [3]): 58 mM
